The source of these data is patent US11306156.

Assay [1] has as its target D3H44 Fab heavy chain A139C_C233S. The assay can be described thus: LCCA, L1:L2 DNA 1:3 normalised to 1:1, SPR of light chain tags; competitor m42.
The target is the same in assay [2]. The assay can be described thus: LCCA, L1:L2 DNA 1:9 normalised to 1:1, SPR of light chain tags; competitor m42.
Assay [3] deals with D3H44 Fab heavy chain L143E_K145T_S188L. The assay can be described thus: LCCA, L1:L2 DNA 1:3 normalised to 1:1, SPR of light chain tags; competitor m34.
The target in assay [4] is D3H44 Fab heavy chain L143K. The description is as above.
In assay [5] the target is D3H44 Fab heavy chain L143R. The description is as above.
Assay [6] has as its target D3H44 Fab heavy chain L124E_L143D_K145T (H1 of LCCA sets 9214, 9217, 9216, 9219, 9220, 9225, 9228, 9229). The assay can be described thus: LCCA: H1 co-expressed with L1 and L2 (DNA 333:250:749 ng), His-tag capture on SPR chip, light chain tags detected with anti-HA/anti-FLAG; competitor L1 Q124K_V133G_S176R_T178R.
The target of assay [7] is D3H44 Fab heavy chain L124E_L143E_K145M (H1 of LCCA sets 9269, 9266, 9267, 9260, 9262, 9263). The assay is described as above.
For assay [8], the target named is D3H44 Fab heavy chain L124R_D146N_Q179K (H1 of LCCA sets 9358, 9359, 9357, 9351, 9352, 9353, 9354, 9350).
Assay [9] addresses D3H44 Fab heavy chain L124E_L143E_K145T. The assay can be described thus: LCCA, SPR of light chain tags; L1:L2 DNA 1:9 normalized to 1:1; competitor m10.
Assay [10] deals with D3H44 Fab heavy chain L124R_Q179K. The assay is described as above.
Assay [11] deals with D3H44 Fab heavy chain L124R_D146N_Q179K (H1 of LCCA sets 9358, 9359, 9357, 9351, 9352, 9353, 9354, 9350). The assay can be described thus: LCCA: H1 co-expressed with L1 and L2 (DNA 333:250:749 ng), His-tag capture on SPR chip, light chain tags detected with anti-HA/anti-FLAG; competitor L2 Q124K_V133G_Q160K_S176R.
For assay [12] the target is unchanged. This is another data set of the same source.
Assay [13] addresses D3H44 Fab heavy chain L124R_D146N_Q179K. The assay can be described thus: LCCA, SPR of light chain tags; L1:L2 DNA 1:3 normalized to 1:1; competitor m8.
Assay [14] has as its target D3H44 Fab heavy chain L124E_K145M_Q179E. The assay is described as above.
Assay [15] concerns the target D3H44 Fab heavy chain L124E_L143D_K145T (H1 of LCCA sets 9214, 9217, 9216, 9219, 9220, 9225, 9228, 9229). The assay can be described thus: LCCA: H1 co-expressed with L1 and L2 (DNA 333:250:749 ng), His-tag capture on SPR chip, light chain tags detected with anti-HA/anti-FLAG; competitor L1 Q124K_V133G_S176R_T178K.
Assay [16] deals with D3H44 Fab heavy chain L124R_D146N_Q179K. The assay can be described thus: LCCA, L1:L2 DNA 1:3 normalised to 1:1, SPR of light chain tags; competitor m55.
Assay [17] deals with D3H44 Fab heavy chain L124E_L143E_K145M. Described as above.
Assay [18] concerns the target D3H44 Fab heavy chain L124E_L143E_K145T. The assay can be described thus: LCCA, SPR of light chain tags; L1:L2 DNA 1:3 normalized to 1:1; competitor m10.
For assay [19], the target named is D3H44 Fab heavy chain L124R_Q179K. Described as above.
Assay [20] deals with D3H44 Fab heavy chain L124R_D146N_Q179K (H1 of LCCA sets 9358, 9359, 9357, 9351, 9352, 9353, 9354, 9350). The assay can be described thus: LCCA: H1 co-expressed with L1 and L2 (DNA 333:250:749 ng), His-tag capture on SPR chip, light chain tags detected with anti-HA/anti-FLAG; competitor L2 Q124K_V133G_S176R_T178K.
Assay [21] addresses D3H44 Fab heavy chain L124A_S186K. The assay can be described thus: LCCA, L1:L2 DNA 1:3 normalised to 1:1, SPR of light chain tags; competitor m33.
Assay [22] addresses D3H44 Fab heavy chain L143E_K145T_S188L. The assay can be described thus: LCCA, L1:L2 DNA 1:3 normalised to 1:1, SPR of light chain tags; competitor m40.
The target of assay [23] is D3H44 Fab heavy chain L143E_K145T. The assay can be described thus: LCCA, L1:L2 DNA 1:3 normalised to 1:1, SPR of light chain tags; competitor m35.
In assay [24] the target is D3H44 Fab heavy chain L143E_K145T_S188L. The assay can be described thus: LCCA, L1:L2 DNA 1:3 normalised to 1:1, SPR of light chain tags; competitor m38.
For assay [25], the target named is D3H44 Fab heavy chain F122C_C233S. The assay can be described thus: LCCA, L1:L2 DNA 1:3 normalised to 1:1, SPR of light chain tags; competitor m42.
Assay [26] has as its target D3H44 Fab heavy chain P175C_C233S. The assay is described as above.
Assay [27] shares this target. The assay can be described thus: LCCA, L1:L2 DNA 1:9 normalised to 1:1, SPR of light chain tags; competitor m42.
Assay [28] deals with D3H44 Fab heavy chain S188G. The assay can be described thus: LCCA, L1:L2 DNA 1:3 normalised to 1:1, SPR of light chain tags; competitor m42.
In assay [29] the target is D3H44 Fab heavy chain S188L. Described as above.
In assay [30] the target is D3H44 Fab heavy chain L124W_L143F. The assay can be described thus: LCCA, L1:L2 DNA 1:3 normalised to 1:1, SPR of light chain tags; competitor m50.
The target in assay [31] is D3H44 Fab heavy chain L124A. The description is as above.
In assay [32] the target is D3H44 Fab heavy chain of LCCA set 6036. The assay is described as above.
Assay [33] concerns the target D3H44 Fab heavy chain A139G_F174V_V190A. The assay can be described thus: LCCA, L1:L2 DNA 1:9 normalised to 1:1, SPR of light chain tags; competitor m45.
For assay [34], the target named is D3H44 Fab heavy chain S188L_V190Y. Described as above.
Assay [35] deals with D3H44 Fab heavy chain A139G_F174V_V190A. The assay can be described thus: LCCA, L1:L2 DNA 1:3 normalised to 1:1, SPR of light chain tags; competitor m45.
In assay [36] the target is D3H44 Fab heavy chain S188L_V190Y. The description is as above.
In assay [37] the target is D3H44 Fab heavy chain L124W_L143F. The assay can be described thus: LCCA, L1:L2 DNA 1:3 normalised to 1:1, SPR of light chain tags; competitor m51.
The target of assay [38] is D3H44 Fab heavy chain L124A. The assay is described as above.
In assay [39] the target is D3H44 Fab heavy chain of LCCA set 6036. The description is as above.
The target of assay [40] is D3H44 Fab heavy chain S188L_V190F. The assay can be described thus: LCCA, L1:L2 DNA 1:9 normalised to 1:1, SPR of light chain tags; competitor m49.
Assay [41] concerns the target D3H44 Fab heavy chain S188L. The assay can be described thus: LCCA, L1:L2 DNA 1:3 normalised to 1:1, SPR of light chain tags; competitor m48.
Assay [42] has as its target D3H44 Fab heavy chain S188L. The assay can be described thus: LCCA, L1:L2 DNA 1:3 normalised to 1:1, SPR of light chain tags; competitor m47.
Assay [43] has as its target D3H44 Fab heavy chain S188L_V190F. The assay can be described thus: LCCA, L1:L2 DNA 1:3 normalised to 1:1, SPR of light chain tags; competitor m49.

Read-outs that look alike come from different tables or passages of the source.

Consider D3H44 light chain F116C_C214S, for which the figures for the H1L1:H1L2 normalized median scalar value ln(r1/f1) in assay [1] and in [2] were 1.37 and 1.39, respectively.

Consider D3H44 light chain Q124E_V133D_S176L, for which the H1L1:H1L2 normalized median ratio in assay [3] turned out to be 26%. In addition, in assay [4], the H2L2:H2L1 normalized median ratio is 90%.

Consider D3H44 light chain Q124E_V133E_S176L, for which the H1L1:H1L2 normalized median ratio in assay [3] worked out at 31%. The H2L2:H2L1 normalized median ratio in assay [5] came out at 86%.

Consider “D3H44 light chain Q124E_V133G_S176D_T178E_T180E”, for which the median LCCA performance normalized to a L1:L2 DNA ratio of 1:1 (ratio H1-L1:H1-L2), H1-L2 share (ratio part of 100) in assay [6] worked out at 17; in assay [7], 16; in assay [15], 21. The median LCCA performance normalized to a L1:L2 DNA ratio of 1:1 (ratio H1-L1:H1-L2), H1-L1 share (ratio part of 100) in assay [8] came out at 90; in assay [11], 82; in assay [12], 89; in assay [20], 84. The H1L1:H1L2 normalized median ratio (% of heavy chain paired) in [9] was found to be 2; in assay [14], 6; in assay [18], 5. The H2L2:H2L1 normalized median ratio (% of heavy chain paired) in assay [10] is 84; in assay [13], 90; in [19], 92. The H2L2:H2L1 normalized median ratio in [16] stood at 84%. Moreover, in [17], the H1L1:H1L2 normalized median ratio worked out at 16%.

In turn, D3H44 light chain Q124E_V133W_T180E gave an H1L1:H1L2 normalized median scalar value ln(r1/f1) in assay [21] of 2.54.

Consider D3H44 light chain Q124R, for which the H1L1:H1L2 normalized median scalar value ln(r1/f1) was 0.82 in assay [22], 0.71 in assay [23] and 1.06 in assay [24].

For the substance D3H44 light chain S121C_C214S, in assay [25], the H1L1:H1L2 normalized median scalar value ln(r1/f1) was found to be 3.12.

As for D3H44 light chain S162C_C214S, the H1L1:H1L2 normalized median scalar value ln(r1/f1) was found to be 1.84 in assay [26] and 1.24 in assay [27].

On to D3H44 light chain S176L, for which, in [28], the H1L1:H1L2 normalized median ratio turned out to be 22% and the H1L1:H1L2 normalized median scalar value ln(r1/f1) was -1.25. Besides, the H2L2:H2L1 normalized median ratio in assay [29] is 7%.

In the case of D3H44 light chain V133A, the H2L2:H2L1 normalized median ratio worked out at 56% in [30] and 59% in [32]. Besides, the H1L1:H1L2 normalized median ratio in [31] was 59%.

Turning to D3H44 light chain V133S, the figures for the H1L1:H1L2 normalized median ratio in assay [33] and in [35] were 11% and 26%, respectively. In addition, the H2L2:H2L1 normalized median ratio in assay [34] was 62%; in assay [36], 58%.

With D3H44 light chain V133W, the H2L2:H2L1 normalized median ratio in [37] is 44%. Further, in assay [38], the H1L1:H1L2 normalized median ratio stood at 41% and the H1L1:H1L2 normalized median scalar value ln(r1/f1) is -0.38. Further, in [39], the H2L2:H2L1 normalized median ratio is 41%.

On to D3H44 light chain, wild type, for which the H2L2:H2L1 normalized median ratio in assay [40] came to 72%; in [41] it was 61%; in [42] it was 93%; in assay [43], 61%.
